According to US20110318339A1 (FABRUS, published 2011):

What was measured:
[1] = biological target: T1, DLL4 DSL (amino acid: 1-217) construct (human, UniProt Q9NR61 26-217); test: Western blot, non-reducing
T1 construct: also called DSL construct; not shown: myc tag (and his tag) added by the PCR primers
Protocol: (§1) Media from transfected CHO cells was collected after 7 days. To enrich for the DLL4 protein, 1 ml aliquots of each sample were batch bound with 50 μl of Talon Resin for 30 minutes. To confirm protein production media samples were tested with mouse anti-c-myc mAb (Genescript; Catalog # A00704). Samples were washed and then boiled with loading dye in the presence or absence of DTT. A gel was run on each of the 2 samples for each condition: with DTT and without DTT. […] For detection goat anti-mouse HRP, goat anti-kappa HRP, and goat anti-lambda HRP were used, respectively.

[2] = biological target: T2, DLL4 Egf2 (amino acid: 1-282) construct (human, UniProt Q9NR61 26-282); test: Western blot, non-reducing
T2 construct: also called EGF2 construct; not shown: myc tag (and his tag) added by the PCR primers
Protocol: as §1

[3] = biological target: T3, DLL4 Egf1 (amino acid: 1-251) construct (human, UniProt Q9NR61 26-251); test: Western blot, non-reducing
T3 construct: also called EGF1 construct; not shown: myc tag (and his tag) added by the PCR primers
Protocol: as §1

[4] = biological target: T4, recombinant human DLL4 (Cat# 1506-D4/CF, R&D Systems) (human, UniProt Q9NR61 27-529); test: ELISA, DLL4 coated, Fab 12.5 nM
T4 construct: Bought protein; also called hDLL4; rHuman DLL4
Protocol: (§2) The plate was blocked by adding 1% BSA in Tris-buffered Saline Tween (TBST) and incubating for 1 hour at room temperature followed by washing 2 times with 150 μl TBST. A Fab antibody was serially diluted in 1% BSA in PBS. A 50 μl aliquot of each serial dilution was added, in triplicate, to each well and the plate was incubated for 1 hour at room temperature followed by washing 2 times with TBST. 50 μl of either goat anti-human kappa HRP conjugated secondary antibody (Cat # A7164-1 mL, Sigma-Aldrich) or goat anti-human lambda HRP conjugated secondary antibody (Cat # L1645-1 ml, Sigma-Aldrich), diluted 1:1000 in 1% BSA in PBS, was added to each well and the plate was incubated for 30 minutes at room temperature followed by washing 3 times with 200 μl TBST. Finally, 50 μl TMB one-component reagent (Cat # TMBW-1000-01, BioFax) was added and allowed to develop for 2 minutes at room temperature. The reaction was immediately halted by the addition of 50 μl 0.5M H₂SO₄ and the absorbance at 450 nm was measured using an ELISA plate reader.

[5] = biological target: T4, recombinant human DLL4 (Cat# …); test: ELISA, DLL4 coated, Fab 50 nM
Protocol: as §2

[6] = biological target: T4, recombinant human DLL4 (Cat# …); test: ELISA, DLL4 coated, Fab 6.25 nM
Protocol: as §2

[7] = biological target: T4, recombinant human DLL4 (Cat# …); test: ELISA, DLL4 coated, Fab 50 nM; remark: listed apart in the source
Protocol: as §2

[8] = biological target: T4, recombinant human DLL4 (Cat# …); test: ELISA, DLL4 coated, Fab 100 nM
[9] = biological target: T4, recombinant human DLL4 (Cat# …); test: ELISA, DLL4 coated, Fab 100 nM; remark: listed apart in the source
Protocol: as §2

[10] = biological target: T4, recombinant human DLL4 (Cat# …); test: SPR (ProteOn), hDLL4 amine-coupled on chip
Procedure, shortened: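 SPR on a ProteOn GLM chip, with DLL4 amine-coupled at three surface densities. Fab analytes were run as 3-fold serial dilutions from 1 μM in 10 mM HEPES pH 7.4, 150 mM NaCl, 0.01% Tween-20, 0.1 mg/ml BSA at 25° C. Responses from each surface were globally fit for binding constants.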

[11] = biological target: T4, recombinant human DLL4 (Cat# …); test: ELISA, DLL4 coated, Fab 75 nM
[12] = biological target: T4, recombinant human DLL4 (Cat# …); test: SPR (ProteOn), hDLL4 amine-coupled on chip; 2-site binding, 10% of it by the footnote
Protocol: (§3) In this example, the binding affinities of selected anti-DLL4 Fabs to recombinant human DLL4 (hDLL4, Cat# 1506-D4/CF, R&D Systems) were analyzed using Surface Plasmon Resonance (SPR) (Biosensor Tools, Salt Lake City, Utah). The Fabs analyzed include germline-derived antibodies and germline-modified DLL4 antibodies. Recombinant hDLL4 was immobilized on a SPR chip using amine coupling at three different surface densities. The Fabs were serially diluted 3-fold, with an initial concentration of 1 μM. Binding studies were run on a ProteOn system using a GLM sensor chip in 10 mM HEPES, pH 7.4, 150 mM NaCl, 0.01% Tween-20, and 0.1 mg/ml BSA at 25° C. The response data from each surface was globally fit to determine the binding constants.

[13] = biological target: T4, recombinant human DLL4 (Cat# …); test: SPR (ProteOn), hDLL4 amine-coupled on chip; 2-site binding, 89% of it by the footnote
Protocol: as §3

[14] = biological target: T4, recombinant human DLL4 (Cat# …); test: ELISA, DLL4 coated, Fab 3.125 nM
Protocol: as §2

[15] = biological target: T4, recombinant human DLL4 (Cat# …); test: ELISA, DLL4 coated, Fab 25 nM
Procedure, shortened: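 A450 read-out after 2 min TMB development and acid stop. Fab, serially diluted in 1% BSA/PBS, bound in triplicate for 1 h at RT on plates blocked with 1% BSA/TBST; detection via HRP goat anti-human kappa or lambda (1:1000, 30 min RT).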

binding result [1]	binding result [2]	binding result [3]	ELISA absorbance at 450 nm [4] [A450]	ELISA absorbance at 450 nm [5] [A450]	ELISA absorbance at 450 nm [6] [A450]	ELISA absorbance at 450 nm [7] [A450]	ELISA absorbance at 450 nm [8] [A450]	ELISA absorbance at 450 nm [9] [A450]	koff [10] [s⁻¹]	kon [10] [M⁻¹ s⁻¹]	ELISA absorbance at 450 nm [11] [A450]	Kd [12] [nM]	Kd [13] [nM]	ELISA absorbance at 450 nm [14] [A450]	ELISA absorbance at 450 nm [15] [A450]	Binder
no binding (tested: 20 nM Fab)	no binding (tested: 20 nM Fab)	no binding (tested: 20 nM Fab)	–	–	–	–	–	–	–	–	–	–	–	–	–	Fab VH5-51_IGHD5-18*01>3_IGHJ4*01 H:KT TRV & V3-4_IGLJ1*01 L:LP S52G (Fab, V domains shown, Fab, lambda light chain; also called Fab H:KT TRV & L:LP S52G) VH: EVQLVQSGAEVKKPGESLKISCKTSGYRFTSYWIVWVRQMPGKGLEWMGIIYPGDSDTRYSPSFQGQVTISADKSISTAYLQWSSLKASDTAMYYCARRKYSYTYDYFDYWGQGTLVTVSS VL: QTVVTQEPSFSVSPGGTVTLTCGLSSGSVSTSYYPSWYQQTPGQAPRTLIYGTNTRSSGVPDRFSGSILGNKAALTITGAQADDESDYYCLLYMGPGISYVFGTGTKVTVL
–	–	–	0.192	0.202	0.125	0.507	0.259	0.686	0.0689	444000	0.268	14	155	0.096	0.31	Fab VH1-46_IGHD6-6*01_IGHJ1*01 S102A/S103P/S104F/H111F & L6_IGKJ1*01 S28N/S30D/S31H (Fab, V domains shown, Fab made in E. coli: VH on CH1 with His6 and Flag tags (Plasmid A), VL on kappa CL (Plasmid C); also called H: APFF & L: NDH) VH: QVQLVQSGAEVKKPGASVKVSCKASGYTFTSYYMHWVRQAPGQGLEWMGIINPSGGSTSYAQKFQGRVTMTRDTSTSTVYMELSSLRSEDTAVYYCAREEYAPFSAEYFQFWGQGTLVTVSS VL: EIVLTQSPATLSLSPGERATLSCRASQNVDHYLAWYQQKPGQAPRLLIYDASNRATGIPARFSGSGSGTDFTLTISSLEPEDFAVYYCQQRSNWPPWTFGQGTKVEIKR
